Patent US11834472B2, “Anti-IL-22 antibodies, antibody fragments, their immunoconjugates and uses thereof” (BioAtla, Inc., priority 2018, dated 2023)
Changes are numbered by the printed parent chain. In names and notes the source's numbering stands. Like-named read-outs stand apart in the source and are kept apart here.

B1: CPS09: mutant anti-IL-22 antibody binding human and mouse IL-22; light chain LC-04, heavy chain HC-25 (antibody, V domains shown)
VH: QVQLVQSGAEVKKPGASVKVSCKASGYIFRSYWIHWIRQPPGKGLEWIGRIYPGTGRTYYNEKFKGRVTISADKSISTAYLQWSSLKASDTAMYYCARSYDYSVAYWGQGTLVTVSS
VL: AIQLTQSPSSLSASVGDRVTITCSASSSVSYMHWYLQKPGQSPQLLIYETRKLASGVPSRFSGSGSGTDFTFTISSLEAEDAATYYCQQWSSNPYITFGQGTKVEIKR
B2: CPS14 (antibody, V domains shown)
VH: B1 VH with R30T, E62R
VL: B1 VL
B3: CPS17: mutant anti-IL-22 antibody binding human and mouse IL-22; light chain LC-04, heavy chain HC-49 (antibody, V domains shown)
VH: B1 VH with R57N, E62R, D101M
VL: B1 VL
B4: LC-E049K: one of the mutant antibodies in the CPE library, used as a control (antibody, V domains shown)
VH: B1 VH with R30T, R57N, Y102S, V104C
VL: B1 VL with E49K, R51S
B5: CPS04: mutant anti-IL-22 antibody binding human and mouse IL-22; light chain LC-07, heavy chain HC-09 (antibody, V domains shown)
VH: B1 VH with R57N, E62R, Y102S
VL: B1 VL with E49K, R51S, A54L
B6: hum10: parent humanized monoclonal antibody against human IL-22; light chain variable region SEQ ID NO: 19, heavy chain variable region SEQ ID NO:20 (antibody, V domains shown)
VH: B1 VH with R30T, R57N, Y102S, V104C
VL: B1 VL with R51S
modifications: Synthetic sequence hum10-HC; Synthetic sequence hum10-LC

How the values were obtained:
[1] = target: T1, mouse IL-22 (Mus musculus, UniProt Q9JJY9); test: SPR capture assay, affinity to mouse IL-22; assay type: binding; details: mouse IL-22, SPR
T1 sequence (Q9JJY9 34-179): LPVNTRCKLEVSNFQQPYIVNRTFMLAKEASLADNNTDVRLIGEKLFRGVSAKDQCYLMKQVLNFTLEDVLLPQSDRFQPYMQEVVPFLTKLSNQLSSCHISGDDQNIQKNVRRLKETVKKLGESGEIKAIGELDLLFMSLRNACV
Protocol: (§1) The affinity of the 10 antibodies of Table 1 was measured by Surface Plasma Resonance (SPR) using a capture assay in PBS buffer to generate binding curves at four different concentrations of each antibody (0.05, 0.1, 0.5, and 1.0 μg/ml). The Ka, Kd and KD values for the mutant antibodies were calculated from the curves for each of the antibodies.
(§2) The affinity of the 10 antibodies of Table 1 was measured by Surface Plasma Resonance (SPR) using a capture assay on a SPR-2 instrument (SierraSensiors, Hamburg, Germany). The antigens hIL-22 and mIL-22 were immobilized on chips. The running buffer for the assay contained 10 mM HEPES with a pH of 7.4, 500 mM NaCl, and 0.05% TWEEN® 20. […] The off-rate was measured for 6 minutes. Binding constants were calculated using the curve fitting software Analyzer2 (Sierra Sensors). Sensorgrams were analyzed with the instrument specific software and with BIAevaluation 4.1 software. The binding data were analyzed using the Langmuir 1:1 model (human IL-22) or a model for a heterogeneous ligand ([…]).
(§3) The antibodies were tested at four different concentrations of each antibody: 0.33 nM, 0.67 nM, 3.3 nM, 6.7 nM for hIL-22; 1, 2, […] for mIL-22. Antibody CPE-LC-E049K was used as a control.

[2] = Pharmacokinetics in NOD SCID mice, plasma concentration by solid phase ELISA; assay type: in vivo, mouse; details: after a 10 mg/kg IV injection
Protocol: The pharmacokinetics of the mutant antibodies of Table 1 were analyzed in mice. The antibodies were injected into mice by IV injection at two doses 0.3 mg/kg and 10 mg/kg. The concentrations of the injected antibodies in the blood plasma were measured by solid phase ELISA.
Two anti-IL-22 antibodies CPS02 and CPS09 were tested in NOD SCID mice. The antibodies were injected via IV at two dosages: 0.3 mg/kg and 10 mg/kg. Three mice were used for each dose group. Blood samples were retrieved from the mice at 10 min, 1 h, 3 h 7 h, 24 h, 48 h, 96 h, 168 h, 240 h and 336 h after the IV injection. The concentrations of the injected antibodies in the blood samples were measured by solid phase ELISA.

[3] = Aggregate formation at 10 mg/mL in PBS; assay type: physicochemical
[4] = target: T2, human IL-22 (Homo sapiens, UniProt Q9GZX6); test: SPR capture assay, affinity to human IL-22; assay type: binding; details: human IL-22, SPR
T2 sequence (Q9GZX6 34-179): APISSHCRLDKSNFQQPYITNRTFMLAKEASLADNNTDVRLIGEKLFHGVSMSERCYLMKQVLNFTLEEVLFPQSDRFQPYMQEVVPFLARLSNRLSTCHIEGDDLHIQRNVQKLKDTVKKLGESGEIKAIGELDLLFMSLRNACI
Protocol: as §1, §2, §3

[5] = system: imiquimod (IMQ) induced psoriasis; assay type: in vivo; details: for reduction in body weight of the treated mice: days 0-7, in comparison to dexamethasone / PBS (FIG. 13)
Text: Two anti-IL-22 antibodies of the present invention, CPS02 and CPS09, were used for the treatment of imiquimod (IMQ) induced psoriasis in mice (FIG. 12). The mice were male BALB/c mice, which were an albino, laboratory-bred strain of the house mouse. A total of 70 mice, at a body weight of 18-20 g, were acclimated for 7 days before induction of psoriasis.
The 70 mice were randomized into 7 groups (10 mice in each group). One group (group 1) was used as a negative control to which no imiquimod was administered to the mice, which was instead replaced with Vaseline. […] The other 6 groups (groups 2-7) were dosed topically with imiquimod at a dosage of 82.5 mg/mouse (5% cream) once daily (qd) for 8 consecutive days from day 0 to day 7 (20 mg for the left ear, 62.5 mg for the shaved back) to induce psoriasis. The back skin was shaved to expose an area of 2×3 cm^2. For the Vaseline control group, the Vaseline was also applied at 82.5 mg/mouse once daily (qd) for 8 consecutive days (20 mg for left ear, 62.5 mg for the shaved back) from day 0 to day 7.
Group 2 was a group of psoriasis-induced mice that were untreated to serve as a control group. The treatment period completely overlapped with the imiquimod application period (day 0 to day 7). For group 2, the mice received both imiquimod and […] on each day of the 8-day period (day 0 to day 7). For the groups that received intravenous (I.V.) injection, the imiquimod was applied within one hour after the I.V. injection on days 0 and 3.
Group 3 was treated with the steroid dexamethasone, which is a current therapeutic treatment used for psoriasis. The dexamethasone was topically applied twice a day (BID) for 8 days. Group 4 was treated with phosphate-buffered saline (PBS), which served as a negative control. Group 5 was treated with an isotype control antibody that also served as a negative control. Groups 6-7 were treated with the anti-IL22 antibodies CPS02 (A) and CPS09 (B), respectively. The treatments for Groups 4-7 were administered by a single intravenous (I.V.) injection on each of days 0 and 3. 3 mice in group 6 died on day 0 and 2 died on day 1. On day 3, the I.V. injection dosage for this group was decreased to 10 mg/kg.
During the 8 day treatment period, the ear thickness was measured on days 0, 3, 5 and 7. The body weight and various skin scores were recorded daily. Pictures of the psoriasis sites were taken on days 0, 3, 5 and 7. On days 1 and 4, about 60 μl blood was collected via retro-orbital bleeding over 24 hours and placed in BD Microtainer® tubes coated with dipotassium ethylenediaminetetraacetic acid (K2EDTA). Plasma was then collected (to get at least 20 μl plasma) and stored at −80° C.
Skin scores for erythema, scales and thickness were measured daily according to an established grading system. The erythema, scales and thickness were scored independently on a scale of from 0 to 4: 0 means none, 1 means slight, 2 means moderate, 3 means marked, and 4 means very marked. The cumulative (total) skin score was also calculated.
The effects of the treatments were analyzed statistically using two-way analysis of variance (ANOVA, Bonferroni post-tests) or one-way ANOVA analysis. For comparisons between the treatment groups and the control group, the p value is denoted in FIGS. 13-18 as (*) if less than 0.05, (**) if less than 0.01, or (***) if less than 0.001.

[6] = Thermostability; assay type: physicochemical
[7] = target: T3, mouse IL-22 (mIL-22) (Mus musculus, UniProt Q9JJY9); test: Inhibition of mIL-22 induced Stat3 phosphorylation in HepG2 cells; assay type: cell-based; details: mAb 6.7 nM
T3 sequence (Q9JJY9 34-179): T1 sequence (Q9JJY9 34-179)
Protocol: One of the immediate functions of IL-22 is inducing phosphorylation of Stat3, a protein in the signaling pathway of IL-22. The 10 antibodies of Table 1 were tested in a cell-based assay for blocking IL-22-dependent phosphorylation of Stat3 through human or mouse IL-22 in HepG2 cells. Antibody hum10 and mutant CPE-LC-E049K were used as controls. Four concentrations of each of the antibodies were used: 0.11 μg/mL, 0.33 μg/mL, 1 μg/mL, and 3 μg/mL.
30,000 human HepG2 cells were seeded in 96 well plates and serum starved overnight. Three-fold dilutions of anti-IL-22 antibodies and control hum10 antibody at concentrations of 0.11 μg/mL, 0.33 μg/mL, 1 μg/mL, and 3 μg/mL were incubated with 200 ng/ml of hIL-22 or mIL-22 at 37° C. for one hour then added to the serum starved human HepG2 cells. The HepG2 cells were incubated with the antibody-IL-22 mixture at 37° C. for 20 minutes. After incubation, HepG2 cells were washed with PBS and lysed. Half of the cell lysate was used to determine the level of phosphorylated Stat3 using Cell Signaling kit #7300 following the vendor's protocol and the other half of the cell lysate was used to determine the level of total Stat3 by Western blot analysis using a Santa Cruz rabbit polyclonal antibody (Sc-7179) against human Stat3.

[8] = target: T4, mIL22 (Mus musculus, UniProt Q9JJY9); test: Affinity ELISA mIL22; assay type: binding
T4 sequence (Q9JJY9 34-179): T1 sequence (Q9JJY9 34-179)
Text: The CPE™ library was screened for antibodies that were able to bind to both human IL-22 and mouse IL-22 with high affinity. Specifically, the CPE™ variants were screened by affinity ELISA for mouse IL-22 (mIL-22) binding affinity. The hum10 was included in every affinity ELISA plate as a control. The CPE™ variants with increased binding affinity to mIL-22 compared to hum10 were scored as primary CPE™ hits. The primary CPE™ hits were re-arrayed, re-transfected, and screened again by affinity ELISA and also by titration ELISA using both mIL-22 and human IL-22 (hIL-22) for antibodies that bind to both mIL-22 and hIL-22. These 10 mutant antibodies were selected based on ELISA data and sequence diversity, ability to scaled up and purified.

Molecule | ka [1] [M·s] | kd [1] [s⁻¹] | ka [4] [M·s] | kd [4] [s⁻¹] | STAT3 Phosphorylation; mIL22 % inhibition [7] | also measured
B1 | 194000 | 0.000768 | 860000 | 2.18e-05 | 63.12% | half-life in mice [2]: about 16 hours; Aggregate formation at 10 mg/mL in PBS [3]: no; effect in treating psoriasis in the mouse model (summary) ([5]; IMQ psoriasis mice): especially effective in treating psoriasis; reduction in body weight of the treated mice ([5]; IMQ psoriasis mice): less reduction in body weight; reduction in body weight of the treated mice ([5]; IMQ psoriasis mice, listed as CSP09): reduction in body weight similar to the PBS buffer negative control; side effect (summary) ([5]; in comparison with the known treatment (dexamethasone)): only a minimal side effect; ear skin thickness ([5]; vs negative controls (isotype matched antibody, PBS, vehicle) (FIG. 14)): less; skin erythema score ([5]; vs negative controls (isotype matched antibody, PBS, vehicle) (FIG. 15)): lower; skin scale score ([5]; vs negative controls (isotype matched antibody, PBS, vehicle) (FIG. 16)): lower; skin thickness ([5]; vs negative controls (isotype matched antibody, PBS, vehicle) (FIG. 17)): lower; Thermostability (% remaining activity 60 min); of duplicate samples [6]: 102%
B2 | 256000 | 0.00123 | 1.13e+06 | 3.55e-05 | – | –
B3 | 252000 | 0.00158 | 1.33e+06 | 6.94e-05 | – | –
B4 | 34100 | 0.00137 | 381000 | 5.93e-05 | – | –
B5 | 279000 | 0.00118 | 1.28e+06 | 3.74e-05 | – | –
B6 | – | – | – | – | no inhibition | Affinity ELISA mIL22 50% max signal mAb ([8]; first mIL22 line of Table 3): no binding; Affinity ELISA mIL22 50% max signal mAb ([8]; second mIL22 line of Table 3): no binding
